Reference: patent US20060148038A1 (INST NAT L DE LA SANTE ET DE LA RECH MEDICALE, published 2006)

Molecular target: T1, antithrombin (purified from human plasma) (human, UniProt P01008 33-464)
T1 construct: mature
Assay: SDS-PAGE with Coomassie blue after incubation with antithrombin and heparin
Procedure: The incubation is sustained for one hour at 25° C., and the reaction mixture is analysed by polyacrylamide gel electrophoresis (10%, crosslinking 29/1), after denaturation and reduction of the sample. After staining with Coomassie blue, the presence of covalent complexes between the (inactivated) form of the factor X derivative and the antithrombin results in a decrease in the intensity of the band corresponding to antithrombin (60 kDa), a decrease in the intensity of the band corresponding to the activated form of the factor X derivative (31 kDa), and the appearance of a new band of higher molecular weight (approximately 100 kDa) corresponding to the covalent complex.

T1 sequence (P01008 33-464): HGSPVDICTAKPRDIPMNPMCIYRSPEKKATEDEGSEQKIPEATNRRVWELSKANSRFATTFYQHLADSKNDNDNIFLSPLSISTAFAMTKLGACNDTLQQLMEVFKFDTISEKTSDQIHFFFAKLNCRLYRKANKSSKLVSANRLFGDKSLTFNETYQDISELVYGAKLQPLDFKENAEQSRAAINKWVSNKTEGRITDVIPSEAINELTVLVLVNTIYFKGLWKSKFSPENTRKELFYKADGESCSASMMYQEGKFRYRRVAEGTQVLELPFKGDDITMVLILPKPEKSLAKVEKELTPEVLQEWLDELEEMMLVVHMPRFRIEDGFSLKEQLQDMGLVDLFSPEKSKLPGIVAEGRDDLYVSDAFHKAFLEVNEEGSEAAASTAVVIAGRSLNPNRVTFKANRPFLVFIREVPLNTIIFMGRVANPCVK

binding result: no binding
B1: activated form of the GDX-SFR derivative (enzyme, human)
light: EDQVDPRLIDGKDGDQCETSPCQNQGKCKDGLGEYTCTCLEGFEGKNCELFTRKLCSLDNGDCDQFCHEEQNSVVCSCARGYTLADNGKACIPTGPYPCGKQTLER
heavy: SFRGQECKDGECPWQALLINEENEGFCGGTILSEFYILTAAHCLYQAKRFKVRVGDRNTEQEEGGEAVHEVEVVIKHNRFTKETYDFDIAVLRLKTPITFRMNVAPACLPERDWAESTLMTQKTGIVSGFGRTHEKGRQSTRLKMLEVPYVDRNSCKLSSSFIITQNMFCAGYDTKQEDACQGDSGGPHVTRFKDTYFVTGIVSWGEGCARKGKYGIYTKVTAFLKWIDRSMKTRGLPKAKSHAPEVITSSPLKEQKLISEEDLN
notes: domain: two EGF domains;domain: catalytic domain
